From paper PMC10449495

Assays:
[1] = target: IpaB (invasion plasmid antigen B), affinity tag-free recombinant; assay: assembly with LPS, anion-exchange purification of the complex, SDS-PAGE gel densitometry; S. flexneri 6 LPS, 4x (2.24 w LPS/w protein); 8 uM IpaC + 1 uM IpaB in 5.1 M urea, 37 C 2 h; Q Sepharose HP, eluted at 50% Buffer B; %Band ratio
[2] = target: IpaB (invasion plasmid antigen B), affinity tag-free recombinant; assay: assembly with LPS, anion-exchange purification of the complex, SDS-PAGE gel densitometry; S. flexneri 3a LPS, 4x (2.24 w LPS/w protein); 8 uM IpaC + 1 uM IpaB in 5.1 M urea, 37 C 2 h; Q Sepharose HP, eluted at 50% Buffer B; %Band ratio
[3] = target: IpaB (invasion plasmid antigen B), affinity tag-free recombinant; assay: assembly with LPS, anion-exchange purification of the complex, SDS-PAGE gel densitometry; S. flexneri 2a LPS, 2x (1.12 w LPS/w protein); 8 uM IpaC + 1 uM IpaB in 5.1 M urea, 37 C 2 h; Q Sepharose HP, eluted at 50% Buffer B; %Band ratio
[4] = target: IpaB (invasion plasmid antigen B), affinity tag-free recombinant; assay: assembly with LPS, anion-exchange purification of the complex, SDS-PAGE gel densitometry; S. sonnei LPS, 8x (4.48 w LPS/w protein); 8 uM IpaC + 1 uM IpaB in 5.1 M urea, 37 C 2 h; Q Sepharose HP, eluted at 50% Buffer B; %Band ratio
[5] = target: IpaB (invasion plasmid antigen B), affinity tag-free recombinant; assay: assembly with LPS, anion-exchange purification of the complex, SDS-PAGE gel densitometry; S. flexneri 6 LPS, 8x (4.48 w LPS/w protein); 8 uM IpaC + 1 uM IpaB in 5.1 M urea, 37 C 2 h; Q Sepharose HP, eluted at 50% Buffer B; %Band ratio
[6] = target: IpaB (invasion plasmid antigen B), affinity tag-free recombinant; assay: assembly with LPS, anion-exchange purification of the complex, SDS-PAGE gel densitometry; S. flexneri 2a LPS, 4x (2.24 w LPS/w protein); 8 uM IpaC + 1 uM IpaB in 5.1 M urea, 37 C 2 h; Q Sepharose HP, eluted at 50% Buffer B; %Band ratio
[7] = target: IpaB (invasion plasmid antigen B), affinity tag-free recombinant; assay: assembly with LPS, anion-exchange purification of the complex, SDS-PAGE gel densitometry; S. flexneri 2a LPS, 8x (4.48 w LPS/w protein); 8 uM IpaC + 1 uM IpaB in 5.1 M urea, 37 C 2 h; Q Sepharose HP, eluted at 50% Buffer B; %Band ratio
[8] = target: IpaB (invasion plasmid antigen B), affinity tag-free recombinant; assay: assembly with LPS, anion-exchange purification of the complex, SDS-PAGE gel densitometry; S. flexneri 3a LPS, 1x (0.56 w LPS/w protein); 8 uM IpaC + 1 uM IpaB in 5.1 M urea, 37 C 2 h; Q Sepharose HP, eluted at 50% Buffer B; %Band ratio
[9] = target: IpaB (invasion plasmid antigen B), affinity tag-free recombinant; assay: assembly with LPS, anion-exchange purification of the complex, SDS-PAGE gel densitometry; S. flexneri 6 LPS, 2x (1.12 w LPS/w protein); 8 uM IpaC + 1 uM IpaB in 5.1 M urea, 37 C 2 h; Q Sepharose HP, eluted at 50% Buffer B; %Band ratio
[10] = target: IpaB (invasion plasmid antigen B), affinity tag-free recombinant; assay: assembly with LPS, anion-exchange purification of the complex, SDS-PAGE gel densitometry; S. sonnei LPS, 4x (2.24 w LPS/w protein); 8 uM IpaC + 1 uM IpaB in 5.1 M urea, 37 C 2 h; Q Sepharose HP, eluted at 50% Buffer B; %Band ratio
[11] = target: IpaB (invasion plasmid antigen B), affinity tag-free recombinant; assay: assembly with LPS, anion-exchange purification of the complex, SDS-PAGE gel densitometry; S. flexneri 3a LPS, 2x (1.12 w LPS/w protein); 8 uM IpaC + 1 uM IpaB in 5.1 M urea, 37 C 2 h; Q Sepharose HP, eluted at 50% Buffer B; %Band ratio
[12] = target: IpaB (invasion plasmid antigen B), affinity tag-free recombinant; assay: assembly with LPS, anion-exchange purification of the complex, SDS-PAGE gel densitometry; S. sonnei LPS, 2x (1.12 w LPS/w protein); 8 uM IpaC + 1 uM IpaB in 5.1 M urea, 37 C 2 h; Q Sepharose HP, eluted at 50% Buffer B; %Band ratio
[13] = target: IpaB (invasion plasmid antigen B), affinity tag-free recombinant; assay: assembly with LPS, anion-exchange purification of the complex, SDS-PAGE gel densitometry; S. sonnei LPS, 1x (0.56 w LPS/w protein); 8 uM IpaC + 1 uM IpaB in 5.1 M urea, 37 C 2 h; Q Sepharose HP, eluted at 50% Buffer B; %Band ratio
[14] = target: IpaB (invasion plasmid antigen B), affinity tag-free recombinant; assay: assembly with LPS, anion-exchange purification of the complex, SDS-PAGE gel densitometry; S. flexneri 3a LPS, 8x (4.48 w LPS/w protein); 8 uM IpaC + 1 uM IpaB in 5.1 M urea, 37 C 2 h; Q Sepharose HP, eluted at 50% Buffer B; %Band ratio
[15] = target: IpaB (invasion plasmid antigen B), affinity tag-free recombinant; assay: assembly with LPS, anion-exchange purification of the complex, SDS-PAGE gel densitometry; S. flexneri 2a LPS, 1x (0.56 w LPS/w protein); 8 uM IpaC + 1 uM IpaB in 5.1 M urea, 37 C 2 h; Q Sepharose HP, eluted at 50% Buffer B; %Band of full-size IpaC divided by %Band of full-size IpaB
[16] = target: IpaB (invasion plasmid antigen B), affinity tag-free recombinant; assay: assembly with LPS, anion-exchange purification of the complex, SDS-PAGE gel densitometry; S. flexneri 6 LPS, 1x (0.56 w LPS/w protein); 8 uM IpaC + 1 uM IpaB in 5.1 M urea, 37 C 2 h; Q Sepharose HP, eluted at 50% Buffer B; %Band ratio

B1: IpaC (invasion plasmid antigen C), affinity tag-free recombinant (natural protein)
chain: MEIQNTKPTQTLYTDISTKQTQSSSETQKSQNYQQIAAHIPLNVGKNPVLTTTLNDDQLLKLSEQVQHDSEIIARLTDKKMKDLSEMSHTLTPENTLDISSLSSNAVSLIISVAVLLSALRTAETKLGSQLSLIAFDATKSAAENIVRQGLAALSSSITGAVTQVGITGIGAKKTHSGISDQKGALRKNLATAQSLEKELAGSKLGLNKQIDTNITSPQTNSSTKFLGKNKLAPDNISLSTEHKTSLSSPDISLQDKIDTQRRTYELNTLSAQQKQNIGRATMETSAVAGNISTSGGRYASALEEEEQLISQASSKQAEEASQVSKEASQATNQLIQKLLNIIDSINQSKNSAASQIAGNIRA
- IpaC:IpaB ratio in the complex with LPS (gel densitometry) [1]: 4 IpaC:IpaB
- IpaC:IpaB ratio in the complex with LPS (gel densitometry) [2]: 5.8 IpaC:IpaB
- IpaC:IpaB ratio in the complex with LPS (gel densitometry) [3]: 6.9 IpaC:IpaB
- IpaC:IpaB ratio in the complex with LPS (gel densitometry) [4]: 7.2 IpaC:IpaB
- IpaC:IpaB ratio in the complex with LPS (gel densitometry) [5]: 3.9 IpaC:IpaB
- IpaC:IpaB ratio in the complex with LPS (gel densitometry) [6]: 7.8 IpaC:IpaB
- IpaC:IpaB ratio in the complex with LPS (gel densitometry) [7]: 9.4 IpaC:IpaB
- IpaC:IpaB ratio in the complex with LPS (gel densitometry) [8]: 2.5 IpaC:IpaB
- IpaC:IpaB ratio in the complex with LPS (gel densitometry) [9]: 4.1 IpaC:IpaB
- IpaC:IpaB ratio in the complex with LPS (gel densitometry) [10]: 9.4 IpaC:IpaB
- IpaC:IpaB ratio in the complex with LPS (gel densitometry) [11]: 3.8 IpaC:IpaB
- IpaC:IpaB ratio in the complex with LPS (gel densitometry) [12]: 5.6 IpaC:IpaB
- IpaC:IpaB ratio in the complex with LPS (gel densitometry) [13]: 2.6 IpaC:IpaB
- IpaC:IpaB ratio in the complex with LPS (gel densitometry) [14]: 5.8 IpaC:IpaB
- IpaC:IpaB ratio in the complex with LPS (gel densitometry) [15]: 3.8 IpaC:IpaB
- IpaC:IpaB ratio in the complex with LPS (gel densitometry) [16]: 2.1 IpaC:IpaB
